Measurements from IntAct's records for PubMed 12813456.

B1: Protein E7 (Human papillomavirus type 16), P03129 (parent)
chain: MHGDTPTLHEYMLDLQPETTDLYCYEQLNDSSEEEDEIDGPAGQAEPDRAHYNIVTFCCKCDSTLRLCVQSTHVDIRTLEDLLMGTLGIVCPICSQKP

Variants of: B1
Details: with kat2b_human KAT2B

Row | Variant | effect of a mutation on the interaction
1 | L67A | decreasing interaction strength
